Test results from patent publication US20180030149A1 (AVEO PHARMACEUTICALS, published 2018).
Changes are numbered by the printed parent chain. Names and notes keep the numbering of the source.

B1: Sh24C05-25 N62S IgG1 (antibody)
heavy: not shown
light: DIQMTQSPSSLSASVGDRVTITCRASQEISGYLSWFQQKPGKAPKSLIYAASTLDSGVPSRFSGSGSGTDFTLTISSLQPEDFATYYCLQYDSYPYTFGQGTKLEIKRTVAAPSVFIFPPSDEQLKSGTASVVCLLNNFYPREAKVQWKVDNALQSGNSQESVTEQDSKDSTYSLSSTLTLSKADYEKHKVYACEVTHQGLSSPVTKSFNRGEC
notes: Humanized, human IgG1/kappa
B2: 18H02 (antibody, mouse IgG1, kappa, V domains shown)
VH: QIQLVQSGPELKKPGEAVKISCKSSGYTFTTYGMSWVKQAPGRALKWMGWINTYSGVPTYADDFKGRFAFSLESSASTAYLQINNLKNEDTATYFCARGRDGYQVAWFAYWGQGTLVTVSA
VL: ETTVTQSPASLSMAIGDKVTIRCITSTDIDDDMNWFQQKPGEPPKLLISEGNTLRPGVPSRFSGSGYGTDFIFTIENMLSEDVADYYCLQSDNLPYTFGGGTKLEIKR
notes: Murine IgG1/kappa, from hybridoma; also called anti-hErbB3 monoclonal antibody 18H02
B3: 11G01 (antibody, mouse IgG1, kappa, V domains shown)
VH: QVQLQQSDAELVKPGASVKISCKVSGYTFTDHIIHWMKQRPEQGLEWIGYIYPRDGYIKYNEKFKGKATLTADKSSSTAYMQVNSLTSEDSAVYFCARGYYYAMDYWGQGTSVTVSS
VL: DVLMTQTPLSLPVSLGDQASISCRSSQSIVHSIGNTYLEWYLQKPGQSPKLLIYKVSNRFSGVPERFSGSGSGTDFTLKISRVEAEDLGVYYCFQGSHVPFTFGSGTKLEIKR
notes: Murine IgG1/kappa, from hybridoma; also called anti-hErbB3 monoclonal antibody 11G01
B4: 12A07 (antibody, mouse IgG1, kappa, V domains shown)
VH: QVQLLQPGAELVRPGTSVKLSCKTSGYTFSSYWMHWVKQRPGQGLEWIGMIDPSDVYTNYNPKFKGKATLTVDTSSSTAYMQLSSLTSEDSAVYYCARNYSGDYWGQGTTLTVSS
VL: B3 VL with T7I, I33N, E65D, H98Y, F101W, S105G
notes: Murine IgG1/kappa, from hybridoma; also called anti-hErbB3 monoclonal antibody 12A07
B5: 04D01 (antibody, mouse IgG1, kappa, V domains shown)
VH: QVQLQQPGAELVRPGTSVKLSCKASGYTFTSHWLHWVKQRPGQGLEWIGVLDPSDFYSNYNQNFKGKATLTVDTSSSTAYMQLSSLTSEDSAVYYCARGLLSGDYAMDYWGQGTSVTVSS
VL: B3 VL with T7I, I33N, L51S, E65D, H98Y, F101W, S105G
notes: Murine IgG1/kappa, purified from hybridoma; also called anti-hErbB3 monoclonal antibody 04D01
B6: 22A02 (antibody, mouse IgG1, kappa, V domains shown)
VH: B4 VH with L5Q, T24A, S30T, S31N, V56S
VL: B3 VL with I33N, E65D, H98Y, F101W, S105G
notes: Murine IgG1/kappa, from hybridoma; also called anti-hErbB3 monoclonal antibody 22A02
B7: 24C05 (antibody, mouse IgG1, kappa)
heavy: EVQLVESGGGLVKPGGSLKLSCAASGFTFSDYAMSWVRQTPEKRLEWVATISDGGTYTYYPDNVKGRFTISRDNAKNNLYLQMSHLKSEDTAMYYCAREWGDYDGFDYWGQGTTLTVSSAKTTPPSVYPLAPGSAAQTNSMVTLGCLVKGYFPEPVTVTWNSGSLSSGVHTFPAVLQSDLYTLSSSVTVPSSTWPSQTVTCNVAHPASSTKVDKKIVPRDCGCKPCICTVPEVSSVFIFPPKPKDVLTITLTPKVTCVVVDISKDDPEVQFSWFVDDVEVHTAQTQPREEQFNSTFRSVSELPIMHQDWLNGKEFKCRVNSAAFPAPIEKTISKTKGRPKAPQVYTIPPPKEQMAKDKVSLTCMITDFFPEDITVEWQWNGQPAENYKNTQPIMDTDGSYFVYSKLNVQKSNWEAGNTFTCSVLHEGLHNHHTEKSLSHSPGK
light: DIQMTQSPSSLSASLGERVSLTCRASQEISGYLSWLQQKPDGTIKRLIYAASTLDSGVPKRFSGSRSGSDYSLTIGSLESEDLADYYCLQYDSYPYTFGGGTKLEIKRADAAPTVSIFPPSSEQLTSGGASVVCFLNNFYPRDINVKWKIDGSERQNGVLNSWTDQDSKDSTYSMSSTLTLTKDEYERHNSYTCEATHKTSTSPIVKSFNRNEC
notes: Murine IgG1/kappa, from hybridoma; also called murine 24C05; 24C05 IgG1

target: T1, recombinant human ErbB3 monomeric protein (cleaved rhErbB3) (human, UniProt P21860 20-643, limits assumed); assay: SPR Biacore 37 C; purified antibody captured on anti-human Fc, cleaved rhErbB3 0.3125-5.0 nM
T1 construct: Monomer made by protease cleavage of the Fc fusion; also called Monomeric ErbB3
Description: The analyses were performed at 37° C. using PBS (Invitrogen, Catalog No. 14040-133) containing 0.05% surfactant P20 (Biacore, Catalog No. BR-1000-54) as running buffer.
The antibodies were captured in individual flow cells at a flow rate of […]. Injection time was varied for each antibody to yield an Rₘₐₓ between 30 and 60 RU. […] The dissociation phase was monitored for up to 1200 seconds. The surface was then regenerated with two 60 second injections of Glycine pH 2.25 (made from Glycine pH 2.0 (Biacore, Catalog No. BR-1003-55) and pH 2.5 (Biacore, Catalog No. BR-1003-56)) at […].
The binding affinities and kinetics of certain purified monoclonal antibodies were also determined. To further characterize certain antibodies, the surface plasmon resonance experiments described above were conducted using concentrations of cleaved rhErbB3 between 0.3125 nM and 5.0 nM (a 2-fold serial dilution).

Binder	Kd	koff	kon
B1	0.16 nM	0.00045 s⁻¹	2.9e+06 M⁻¹ s⁻¹

target: T2, human ErbB3 (human, UniProt P21860 20-1342); assay: cell-based or functional assay

Binder	inhibition of NRG1-β1 induced phosphorylation of Akt in MCF7 and DU145 cells (ELISA)	inhibition of NRG1-β1 induced phosphorylation of ErbB3 in SKBR-3 cells (ELISA, 5 µg/ml antibody)	inhibition of phosphorylation of ErbB3 in exponentially growing SKBR-3 cells (ELISA)
B2	≥ 80%	≥ 50%	–
B3	≥ 80%	≥ 50%	–
B4	≥ 80%	≥ 50%	–
B5	≥ 80%	≥ 50%	–
B6	≥ 80%	≥ 50%	–
B7	≥ 80%	≥ 50%	–
B1	–	–	≥ 50%

target: T2, human ErbB3; assay: cell-based or functional assay; remark: another data set of the same source

Binder	IC50, NRG1-β1 dependent proliferation of MCF7 cells (MTT)
B2	1 nM
B3	1.98 nM
B4	0.74 nM
B5	0.47 nM
B6	1.62 nM
B7	0.39 nM

target: T3, recombinant human ErbB3/Fc fusion protein (human, UniProt P21860 20-643); assay: ECL (MSD) competition: rhErbB3/Fc coated on the plate, antibody dilutions, then NRG1-β1 at 0.25 µg/ml; bound NRG1-β1 detected
T3 construct: Bought (R&D Systems, Cat. No. 348-RB); the NRG1-α1 assay names Cat. No. 4518-RB instead; also called rhErbB3-Fc; rhErbB3/Fc; not shown: Fc portion of the bought fusion protein
Description: (§1) MA2400 96-well standard binding plates (Meso Scale Discovery, Cat. No. L15XA-6) were coated with 50 μl of 0.5 μg/mL rhErbB3/Fc (R&D systems, Cat. No. 348-RB) in PBS (Invitrogen, Cat. No. 14040-133) for overnight at 4° C. with no agitation. The plates then were washed 3 times with PBS+0.1% Tween20 (Sigma P5927) and blocked with 200 μl of PBS containing 5% BSA (Sera Care Life Sciences, Cat. No. AP-4510-80) for 1.5 hour at room temperature. After washing the plates 3 times with PBS, 25 μl of the antibody dilutions were added to the plates for another hour at room temperature with agitation. […] The plates then were washed 3 times with PBS, and 150 μl of 1× read buffer (Meso Scale Discovery, Cat. No. R92TC-1) was added to each well before the plates were analyzed on a Sector® Imager 2400 (Meso Scale Discovery) instrument.

Binder	IC50 (read off the curve)
B2	~0.3 nM
B4	~0.2 nM
B5	~0.1 nM
B6	~0.2 nM
B7	~0.3 nM

target: T3, recombinant human ErbB3/Fc fusion …; assay: ECL competition; inhibition of NRG1-β1 binding to plate-coated rhErbB3/Fc
Description: (§2) Multi-array 96-well standard binding plates (Meso Scale Discovery, Cat. No. L15XA-3) were coated with 50 μl of 0.5 μg/mL rhErbB3/Fc (R&D systems, Cat. No. 348-RB) in PBS (Invitrogen, Cat. No. 14040-133) for one hour at room temperature with no agitation. The plates then were washed three times with PBS+0.1% Tween20 (Sigma P5927) and blocked with 200 μl of 100% Horse Serum, heat inactivated (GIBCO, Cat. No. 26050-088) for 1.5 hours at room temperature. After washing the plates three times with PBS+0.1% Tween, 25 μl of the antibody dilutions were added to the plates for another hour at room temperature with agitation. […] The plates then were washed three times with PBS+0.1% Tween, and 150 μl of 1× read buffer (Meso Scale Discovery, Cat. No. R92TC-1) was added to each well before the plates were analyzed on a Sector® Imager 2400 (Meso Scale Discovery) instrument.

Binder	IC50
B1	0.122 nM

target: T3, recombinant human ErbB3/Fc fusion …; assay: SPR Biacore T100, 25 C; antibody captured on anti-mouse IgG, rhErbB3-Fc injected
Description: Rabbit anti-mouse IgGs (Biacore, Cat. No. BR-1008-38) were immobilized on carboxymethylated dextran CM4 sensor chips (Biacore, Cat. No. BR-1005-34) by amine coupling (BIAcore, Cat. No. BR-1000-50) using a standard coupling protocol according to vendor's instructions. The analyses were performed at 25° C., using PBS (Invitrogen, Cat. No. 14040-133) containing 0.05% surfactant P20 (Biacore, Cat. No. BR-1000-54) as running buffer.
The antibodies were captured in individual flow cells at a flow rate of 10 μl/minute. Injection time was varied for each antibody to yield an Rₘₐₓ between 30 and 60 RU. […] The dissociation phase was monitored for up to 3600 seconds. The surface was then regenerated with two 60-seconds injection of 10 mM Glycine-HCl, pH 1.7 (made from Glycine pH 1.5 (Biacore, Cat. No. BR-1003-54) and pH 2.0 (Biacore, Cat. No. BR-1003-55)) at a flow rate of […].
Kinetic parameters were determined using the kinetic function of the BIAevaluation software (Biacore) with double reference subtraction. Kinetic parameters for each antibody, kₐ (association rate constant), kd (dissociation rate constant) and KD (equilibrium dissociation constant) were determined.

Binder	Kd	koff	kon
B2	0.091 nM	2.5e-05 s⁻¹	280000 M⁻¹ s⁻¹
B3	0.091 nM	2.2e-05 s⁻¹	270000 M⁻¹ s⁻¹
B4	0.3 nM	0.00019 s⁻¹	620000 M⁻¹ s⁻¹
B5	0.25 nM	9.3e-05 s⁻¹	380000 M⁻¹ s⁻¹
B6	0.32 nM	0.00022 s⁻¹	700000 M⁻¹ s⁻¹
B7	0.0065 nM	9.2e-06 s⁻¹	1.5e+06 M⁻¹ s⁻¹

target: T3, recombinant human ErbB3/Fc fusion …; assay: ECL (MSD) competition: rhErbB3/Fc coated on the plate, antibody dilutions, then NRG1-β1 at 0.25 µg/ml; bound NRG1-β1 detected; remark: another data set of the same source
Description: as §2

Binder	IC50 (read off the curve)
B1	~0.1 nM

target: T3, recombinant human ErbB3/Fc fusion …; assay: ECL competition; inhibition of NRG1-β1 binding to plate-coated rhErbB3/Fc; remark: another data set of the same source
Description: as §1

Binder	IC50
B2	0.346 nM
B4	0.235 nM
B5	0.223 nM
B6	0.242 nM
B7	0.337 nM
